Source: article PMC11931385, “Structural and functional analysis of cancer-associated missense variants in the retinoblastoma protein pocket domain” (The Journal of Biological Chemistry, 2025)
No end group written: not given here. TMR = tetramethyl rhodamine dye

T1: Rb^P K462T (human, UniProt P06400 380-788, K462T)
T1 construct: also called variant 9
T1 sequence (looked up): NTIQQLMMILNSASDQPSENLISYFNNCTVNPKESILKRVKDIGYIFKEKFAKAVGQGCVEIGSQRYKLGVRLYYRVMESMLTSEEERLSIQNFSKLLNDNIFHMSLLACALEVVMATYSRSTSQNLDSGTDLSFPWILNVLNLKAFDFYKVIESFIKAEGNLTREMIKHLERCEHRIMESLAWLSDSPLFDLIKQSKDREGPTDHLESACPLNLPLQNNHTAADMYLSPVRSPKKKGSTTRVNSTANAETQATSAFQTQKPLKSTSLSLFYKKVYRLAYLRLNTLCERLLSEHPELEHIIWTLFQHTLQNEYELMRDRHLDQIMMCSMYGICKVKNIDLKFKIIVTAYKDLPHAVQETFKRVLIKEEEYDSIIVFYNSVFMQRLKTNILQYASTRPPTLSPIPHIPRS

T2: Rb^P S474R (human, UniProt P06400 380-788, S474R)
T2 construct: also called variant 13
T2 sequence (looked up): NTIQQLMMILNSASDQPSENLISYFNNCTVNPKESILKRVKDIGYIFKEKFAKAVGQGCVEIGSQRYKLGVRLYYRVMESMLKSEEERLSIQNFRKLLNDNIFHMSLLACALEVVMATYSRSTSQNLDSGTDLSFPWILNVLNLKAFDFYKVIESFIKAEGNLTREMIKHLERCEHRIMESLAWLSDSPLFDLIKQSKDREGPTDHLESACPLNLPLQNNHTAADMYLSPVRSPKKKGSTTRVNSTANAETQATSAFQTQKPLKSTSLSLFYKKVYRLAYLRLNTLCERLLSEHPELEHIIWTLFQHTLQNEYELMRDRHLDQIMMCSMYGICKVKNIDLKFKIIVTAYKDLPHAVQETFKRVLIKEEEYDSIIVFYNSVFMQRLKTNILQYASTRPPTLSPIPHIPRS

T3: Rb^P H555Y (human, UniProt P06400 380-788, H555Y)
T3 construct: also called variant 29
T3 sequence (looked up): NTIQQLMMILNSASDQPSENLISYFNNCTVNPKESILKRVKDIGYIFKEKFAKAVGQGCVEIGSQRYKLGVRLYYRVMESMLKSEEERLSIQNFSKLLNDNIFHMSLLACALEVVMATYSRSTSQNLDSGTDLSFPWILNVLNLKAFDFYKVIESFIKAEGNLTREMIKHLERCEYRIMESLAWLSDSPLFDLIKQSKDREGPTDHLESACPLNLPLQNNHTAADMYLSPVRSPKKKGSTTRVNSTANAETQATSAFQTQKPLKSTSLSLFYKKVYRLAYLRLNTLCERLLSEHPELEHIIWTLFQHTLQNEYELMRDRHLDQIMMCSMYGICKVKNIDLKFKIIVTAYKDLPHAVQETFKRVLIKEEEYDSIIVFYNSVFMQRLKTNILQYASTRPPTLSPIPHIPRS

T4: Rb^P R741H (human, UniProt P06400 380-788, R741H)
T4 construct: also called variant 69
T4 sequence (looked up): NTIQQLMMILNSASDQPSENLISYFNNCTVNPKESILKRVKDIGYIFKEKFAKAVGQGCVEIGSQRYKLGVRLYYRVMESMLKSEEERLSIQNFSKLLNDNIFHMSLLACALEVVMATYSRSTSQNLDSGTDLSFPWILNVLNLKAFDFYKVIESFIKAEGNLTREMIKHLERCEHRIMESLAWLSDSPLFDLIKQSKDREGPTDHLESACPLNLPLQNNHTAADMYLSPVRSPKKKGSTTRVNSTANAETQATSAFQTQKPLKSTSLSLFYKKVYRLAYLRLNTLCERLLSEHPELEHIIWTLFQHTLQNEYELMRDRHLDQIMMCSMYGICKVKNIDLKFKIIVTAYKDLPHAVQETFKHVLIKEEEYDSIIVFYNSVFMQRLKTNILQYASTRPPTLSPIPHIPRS

T5: Rb^P D604G (human, UniProt P06400 380-788, D604G)
T5 construct: also called variant 36
T5 sequence (looked up): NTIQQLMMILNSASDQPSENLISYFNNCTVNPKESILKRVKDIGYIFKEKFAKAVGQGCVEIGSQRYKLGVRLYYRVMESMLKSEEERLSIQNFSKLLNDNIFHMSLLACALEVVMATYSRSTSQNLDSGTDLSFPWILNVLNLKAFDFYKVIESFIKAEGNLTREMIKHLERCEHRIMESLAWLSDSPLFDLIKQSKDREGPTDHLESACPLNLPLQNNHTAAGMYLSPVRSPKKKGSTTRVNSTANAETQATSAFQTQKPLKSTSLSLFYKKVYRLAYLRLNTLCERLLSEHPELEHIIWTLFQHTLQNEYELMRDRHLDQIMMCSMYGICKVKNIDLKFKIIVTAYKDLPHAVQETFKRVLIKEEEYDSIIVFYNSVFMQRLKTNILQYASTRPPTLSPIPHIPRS


Tests used:
Assay in all cases: fluorescence polarisation; 37 °C, after the 25 °C reading ramped over 7 min to 37 °C and 2 min incubation; unlabeled Rb^P against 1.5 nM TMR-E2F1^TD or 7.5 nM TMR-E7^LxCxE; 25 mM Tris pH 8.0, 200 mM NaCl, 1 mM DTT, 0.1% Tween-20; apparent Kd
Conditions in all cases: both partners purified
Rb^P K462T = target: T1, Rb^P K462T
Rb^P S474R = target: T2, Rb^P S474R
Rb^P H555Y = target: T3, Rb^P H555Y
Rb^P R741H = target: T4, Rb^P R741H
Rb^P D604G = target: T5, Rb^P D604G

Row | Binder | Kd (Rb^P K462T) [nM] | Kd (Rb^P S474R) [nM] | Kd (Rb^P H555Y) [nM] | Kd (Rb^P R741H) [nM] | Kd (Rb^P D604G) [nM]
1 | {TMR}-GEGIRDLFDCDFGDLTPLD (also called E2F^TD; source: synthetic peptide, bought: GenScript) [TMR-E2F1^TD, peptide of the E2F1 transactivation domain] | 51 | 580 | 366 | 41 | 50
2 | DLYCYEQLN (also: TMR label, position not given here, source: synthetic peptide, bought: GenScript) [TMR-E7^LxCxE, LxCxE peptide of the E7 oncoprotein from HPV] | 16 | 15 | 32 | 21 | 26
